Measurements reported in article PMC3242593, “Influence of glioma tumour microenvironment on the transport of ANG1005 via low-density lipoprotein receptor-related protein 1” (British Journal of Cancer, 2011).

System: U87 human glioblastoma cells
Assay: [125I]-Angiopep-2 or [125I]-ANG1005 uptake assay in U87 cells (LRP1-mediated endocytosis)
Assay type: cell-based
Details: unlabelled Angiopep-2 50 μM or preincubated RAP 1 μM, percentage of control, quadruplicate
Protocol: In brief, beads were washed twice with 3 ml of PBS on a Whatman filter and resuspended in 60 μl of PBS. Na^125I (1 mCi) from GE Healthcare (Baie d’Urfé, QC, Canada) was added to the bead suspension for 5 min at room temperature. Iodination was initiated by adding 100 μg of peptide (80–100 μl) diluted in 0.1 M phosphate buffer solution, pH 6.5.
In-vitro silencing of LRP1 was carried out by standard methodologies ([Song et al, 2009]). The sequences of oligonucleotides were […]tt (sense) and […]tt (antisense). Human U87 glioblastoma cells were grown to 50% confluence and were transfected with LRP1 silencing RNA (siRNA) using Lipofectamine 2000 (Life Technologies Corporation, Carlsbad, CA, USA) according to the manufacturer's specifications. After 48 h of transfection, cells were used for subsequent assays. Expression of proteins was assessed by western blot analysis.
Cells were incubated in medium in which the sodium bicarbonate had been replaced with Ringer/HEPES buffer (150 mM NaCl, 5.2 mM KCl, 2.2. mM CaCl2, 0.2 mM MgCl2·6H2O, 6 mM NaHCO3, 2.8 mM glucose, and 5 mM HEPES). […]
Cells were seeded in a 24-well plate (5 × 10^4 cells per well) in appropriate media and fed for 3 days. […] Results were quantified with a Wizard 1470 Gamma counter (Perkin-Elmer, Woodbridge, ON, Canada). […]

B1: RAP: receptor-associated protein, a known LRP1 ligand that competitively inhibits uptake of Angiopep-2 (protein, UniProt P30533 35-357, looked up)
Alpha-2-macroglobulin …: YSREKNQPKPSPKRESGEEFRMEKLNQLWEKAQRLHLPPVRLAELHADLKIQERDELAWKKLKLDGLDEDGEKEARLIRNLNVILAKYGLDGKKDARQVTSNSLSGTQEDGLDDPRLEKLWHKAKTSGKFSGEELDKLWREFLHHKEKVHEYNVLLETLSRTEEIHENVISPSDLSDIKGSVLHSRHTELKEKLRSINQGLDRLRRVSHQGYSTEAEFEEPRVIDLWDLAQSANLTDKELEAFREELKHFEAKIEKHNHYQKQLEIAHEKLRHAESVGDGERVSRSREKHALLEGRTKELGYTVKKHLQDLSGRISRARHNEL
  effect of unlabelled competitor on uptake of [125I]-Angiopep-2 (500 nM): inhibited
